The values below come from article PMC12444563 (ACS Omega, 2025).

Series [1] in a line: Liver S9 fraction stability assay, rat. Particulars: 37 °C; for remaining at 0.5 h, 1 μM / remaining at 1.5 h, 1 μM: male, liver S9 fraction, read-out: S9 stability (matrix: rat) % remaining; for remaining at 0.5 h, 1 μM: 30 min. The series is classed as in vitro ADME. Here is the method:
(§1) The plasma stability assays were performed by Selvita SA (Krakow, Poland) following the protocol described in the Supporting Information. For the use of human plasma, consent was obtained from the subject or from the next of kin.
9. Plasma stability assays […]
Protocol for S9 fraction: a stock solution of compounds 1-4 in DMSO was incubated in human (male, pooled, commercially obtained from Xeno-tech lot: 2310104) and rat (male, pooled, commercially obtained from Xeno-tech (lot: 2210317)) S9 fraction at a final concentration of 1 μM (final concentration of DMSO = 0.5 %). The samples were incubated at 37 °C with a shaking of 450 rpm.
Aliquots of the samples were analyzed at time 0, 30 and 90 minutes by LC-MS/MS analysis.
(§2) The areas of the peak of the compounds 1-4 in the LC chromatogram were used to evaluate stability profile. The percentage of residual compounds 1-4 was calculated as the ratio between the area of the peak of the analyte and the area of the internal standard.
(§3) % residual compound = Area analyte ∙ 100
(§4) Table S7. LC-MS data of the stability assays in plasma extracts of compound 1.
(§5) Stability assays compound 1
(§6) Time Plasma stability Plasma stability S9 stability S9 stability
(§7) (min.) (matrix: rat) (matrix: human) Time (min.) (matrix: rat) (matrix: human) % remaining % remaining % remaining % remaining
(§8) Table S8. LC-MS data of the stability assays in plasma extracts of compound 2.
(§9) Stability assays compound 2

Series [2] in a line: Plasma stability assay, human plasma. Format: in vitro ADME. Particulars: 37 °C; for remaining at 0.5 h, 1 μM / remaining at 2 h, 1 μM / remaining at 4 h, 1 μM: both sexes, read-out: Plasma stability (matrix: human) % remaining; for remaining at 0.5 h, 1 μM: 30 min; for remaining at 2 h, 1 μM: 120 min. Here is the method:
as §1
(§10) 9. Plasma stability assays
(§11) Protocol for full plasma assay: a stock solution of compounds 1-4 in DMSO was incubated in human (Anticoagulants: Na Heparin; Gender: Pooled; Cat. No: IPLANAH100ML; Lot: 37921; Supplier:
(§12) Innovative Research) and rat (Strain: Sprague Dawley; Anticoagulants: Na Heparin; Cat. No:
(§13) IGRTSDPLANAH100ML; Supplier: Innovative Research) plasma at a final concentration of 1 μM (final concentration of DMSO = 1 %). The samples were incubated at 37 °C with a shaking of 450 rpm. Aliquots of the samples were analyzed at time 0, 30 minutes, 2 and 4 hours by LC-MS/MS […]
as §2, §3, §4, §5, §6, §7, §8, §9

Series [3] in a line: Plasma stability assay, rat plasma. Format: in vitro ADME, rat (Sprague Dawley). The note with it: 37 °C; for remaining at 0.5 h, 1 μM / remaining at 2 h, 1 μM / remaining at 4 h, 1 μM: Sprague Dawley, read-out: Plasma stability (matrix: rat) % remaining; for remaining at 0.5 h, 1 μM: 30 min; for remaining at 2 h, 1 μM: 120 min. Here is the method: as §1, §10, §11, §12, §13, §2, §3, §4, §5, §6, §7, §8, §9

The target of series [4] is T1, bovine spleen Cathepsin B (Bos taurus, UniProt P07688).
T1 construct: bovine spleen Cathepsin B (SigmaAldrich C6286, ≥10 units/mg protein); purchased SigmaAldrich C6286; host or cells: bovine spleen (tissue-derived)
The series is described as follows: Preliminary Cathepsin B cleavage assay for protocol validation, HPLC vs UHPLC-HRMS. Format: biochemical. The note with it: for % residual compound, HRMS: UHPLC-HRMS (Orbitrap) detection; for % residual compound, HPLC: analytical HPLC detection. Here is the method: The Cathepsin B cleavage assay was performed by incubating compounds 1–4 at 37 °C under gently shaking conditions in the presence of the active form of Cathepsin B. More specifically, 122.4 μL of an enzyme-activating solution (composed of 7.48 mg of L-cysteine dissolved in 2 mL of a buffer solution containing 20 mM NaOAc, 1 mM EDTA, pH 5.4 to give a final cysteine concentration of 30.88 mM) was mixed with 12.6 μL of enzyme stock solution, previously prepared by solubilization of bovine spleen Cathepsin B (SigmaAldrich C6286, ≥10 units/mg protein) in 1 mL of buffer solution (without cysteine) to give a concentration of enzyme stock solution of 12 units/mL. After the dilution, the final concentration of Cathepsin B was 1.12 u/mL. Then, the diluted enzyme solution was incubated at 37 °C for 15 min to activate Cathepsin B. After 15 min, 6 μL of 117 μM compound solution, previously prepared by diluting 5.85 μL of 1 mM stock solution of the compound in 44.15 μL of dry DMSO (giving a 117 μM solution), was added to the test tube and the cleavage assay solution was incubated at 37 °C under gentle shaking conditions. Sample aliquots (10 μL) were taken out at 15, 30 min, and 1, 2, 4, and 24 h and quenched with 10 μL of MeOH+1% formic acid. The solutions were then centrifuged for 10 min at 6000 rpm. Blank solutions were prepared for each compound by dilution of 6 μL of a 117 μM compound solution into 135 μL of an enzyme-activating solution. UHPLC-MS analyses were carried out using a Vanquish UHPLC System (Thermo Fisher Scientific) and Orbitrap Exploris 120 (Thermo Fisher Scientific). Thermo Scientific Xcalibur software was used to control the instruments and acquire the data. Freestyle 1.8 software was used for processing the data. UHPLC chromatographic separations were performed on a reversed-phase column Accucore C18 50 × 2.1 mm, 2.6 μm (Thermo Fisher Scientific). A gradient system was used with the mobile phase consisting of solvent A: H2O + 0.05% formic acid and solvent B: acetonitrile. The areas of the peak of compounds 1–4 in the extracted ion chromatogram were used to evaluate the kinetics of the cleavage process. The percentage of residual compound was calculated as the ratio between the areas of the peak of the full compound at the desired time point and in the blank analysis. %Residualcompound=areacompoundatthedesiredtimepoint/areacompoundintheblanksolution×100
Based on the similarity of the Cathepsin B recognized sequence GFLG to GPLG, we inferred that the latter could also be recognized by the same lysosomal enzyme. Therefore, a Cathepsin B cleavage assay for compound 1 was planned, and the experiment was designed to focus on a short incubation time (up to 4 h) to better mimic the fast transient and dynamic environment of drug clearance and activation generally occurring in in vivo conditions. An Orbitrap mass analyzer was chosen to analyze the final incubated solution due to its higher sensitivity compared to traditional HPLC methods, thereby allowing precise evaluation of the drug release kinetics even at low compound concentrations. At first, to validate the designed Orbitrap-protocol over the HPLC protocols generally reported in the literature, we initially performed the cleavage assay on compound 4 containing the VA sequence, for which the recognition by the Cathepsin B enzyme is well documented. ,− For instance, compound 4 was incubated at 37 °C with a sodium acetate buffer solution (final concentration of 4: 5 μM) containing the active form of the Cathepsin B enzyme, and diluted aliquots at 0–30–60–120 and 240 min were collected and analyzed by a UHPLC-Orbitrap instrument and, in parallel, by analytical HPLC. As shown in Figure S26 of the Supporting Information, the degradation of the VA-based compound 4 can be appreciated from both analyses; however, an expected remarkable difference between the two methods was noted regarding the final concentration of the compound 4 at the end of the experiment. […]

Read-outs that look alike come from different tables or passages of the source. Starred links: 1 amine or outer side, 2 acyl side, 3 side chain; linkers in the order of their positions; H or OH if unused. Non-standard residues stand in square brackets, D forms with d. Residues, ends and D or L forms follow the SMILES beside them. *: point of attachment. Paclitaxel(2'-OCO-DMEDA) = CC(=O)O[C@H]1C(=O)[C@@]2(C)[C@H]([C@H](OC(=O)c3ccccc3)[C@]3(O)C[C@H](OC(=O)[C@H](OC(=O)N(C)CCN(C)*)[C@@H](NC(=O)c4ccccc4)c4ccccc4)C(C)=C1C3(C)C)[C@]1(OC(C)=O)CO[C@@H]1C[C@@H]2O; Fmoc = O=C(OCC1c2ccccc2-c2ccccc21)*; PABC = O=C(OCc1ccc(N[*:1])cc1)[*:2]

For the compound `CC(=O)O[C@H]1C(=O)[C@@]2(C)[C@H]([C@H](OC(=O)c3ccccc3)[C@]3(O)C[C@H](OC(=O)[C@H](OC(=O)N(C)CCN(C)C(=O)OCc4ccc(NC(=O)CNC(=O)[C@H](CC(C)C)NC(=O)[C@@H]5CCCN5C(=O)CNC(=O)OCC5c6ccccc6-c6ccccc65)cc4)[C@@H](NC(=O)c4ccccc4)c4ccccc4)C(C)=C1C3(C)C)[C@]1(OC(C)=O)CO[C@@H]1C[C@@H]2O` [Compound 1, Fmoc-GPLG-PABC-diamine-PTX] (Fmoc-GPLG[PABC]-{Paclitaxel(2'-OCO-DMEDA)}), the amount remaining at 0.5 h, 1 μM was 88.8% in series [1] (rat); 98.9% in series [2] (human, plasma); 98.1% in series [3] (rat, plasma). Besides, the fraction remaining at 1.5 h, 1 μM in series [1] (rat, 90 min (1.5 h)) worked out at 94.5%. In series [2] (1 μM, 240 min (4 h)), the “Plasma stability (matrix: human) % remaining” value was 100%. Besides, the fraction remaining at 2 h, 1 μM was 117% in series [2] (human, plasma) and 111% in series [3] (rat, plasma). For the same compound, the fraction remaining at 4 h, 1 μM in series [2] (human, plasma, 240 min (4 h)) came to 112%; in series [3] (rat, plasma, 240 min (4 h)), 103%. In addition, the “Plasma stability (matrix: rat) % remaining” value in series [3] (1 μM, 240 min (4 h)) was 100%.

Consider `CC(=O)O[C@H]1C(=O)[C@@]2(C)[C@H]([C@H](OC(=O)c3ccccc3)[C@]3(O)C[C@H](OC(=O)[C@H](OC(=O)N(C)CCN(C)C(=O)OCc4ccc(NC(=O)CNC(=O)[C@H](CC(C)C)NC(=O)[C@H](Cc5ccccc5)NC(=O)CNC(=O)OCC5c6ccccc6-c6ccccc65)cc4)[C@@H](NC(=O)c4ccccc4)c4ccccc4)C(C)=C1C3(C)C)[C@]1(OC(C)=O)CO[C@@H]1C[C@@H]2O` [Compound 2, Fmoc-GFLG-PABC-diamine-PTX] (Fmoc-GFLG[PABC]-{Paclitaxel(2'-OCO-DMEDA)}), for which the share remaining at 0.5 h, 1 μM in series [1] (rat) worked out at 72.8%; in series [2] (human, plasma) it was 102%; in series [3] (rat, plasma), 92.1%. In series [1] (rat, 90 min (1.5 h)), the amount remaining at 1.5 h, 1 μM was 61.8%. In addition, the amount remaining at 2 h, 1 μM turned out to be 104% in series [2] (human, plasma) and 99% in series [3] (rat, plasma). The amount remaining at 4 h, 1 μM worked out at 93.9% in series [2] (human, plasma, 240 min (4 h)) and 103% in series [3] (rat, plasma, 240 min (4 h)).

For `CC(=O)O[C@H]1C(=O)[C@@]2(C)[C@H]([C@H](OC(=O)c3ccccc3)[C@]3(O)C[C@H](OC(=O)[C@H](OC(=O)N(C)CCN(C)C(=O)OCc4ccc(NC(=O)[C@H](CCCNC(N)=O)NC(=O)[C@@H](NC(=O)OCC5c6ccccc6-c6ccccc65)C(C)C)cc4)[C@@H](NC(=O)c4ccccc4)c4ccccc4)C(C)=C1C3(C)C)[C@]1(OC(C)=O)CO[C@@H]1C[C@@H]2O` [Compound 3, Fmoc-VCit-PABC-diamine-PTX], the fraction remaining at 0.5 h, 1 μM was determined as 86.5% in series [1], 102% in series [2] and 123% in series [3]. Further, the amount remaining at 1.5 h, 1 μM in series [1] (90 min (1.5 h)) was 42.6%. In addition, the share remaining at 2 h, 1 μM in series [2] came out at 98.3%; in series [3], 113%. Moreover, the amount remaining at 4 h, 1 μM in series [2] (240 min (4 h)) was found to be 77.1%; in series [3] (240 min (4 h)), 118%.

With `CC(=O)O[C@H]1C(=O)[C@@]2(C)[C@H]([C@H](OC(=O)c3ccccc3)[C@]3(O)C[C@H](OC(=O)[C@H](OC(=O)N(C)CCN(C)C(=O)OCc4ccc(NC(=O)[C@H](C)NC(=O)[C@@H](NC(=O)OCC5c6ccccc6-c6ccccc65)C(C)C)cc4)[C@@H](NC(=O)c4ccccc4)c4ccccc4)C(C)=C1C3(C)C)[C@]1(OC(C)=O)CO[C@@H]1C[C@@H]2O` [Compound 4, Fmoc-VA-PABC-diamine-PTX], the “S9 stability (matrix: rat) % remaining” value in series [1] (1 μM, 90 min (1.5 h)) amounted to 81.17%. The amount remaining at 0.5 h, 1 μM came to 81.1% in series [1] (rat); 101% in series [2] (human, plasma); 96.1% in series [3] (rat, plasma). For the same compound, the amount remaining at 1.5 h, 1 μM in series [1] (rat, 90 min (1.5 h)) amounted to 81.2%. Moreover, the share remaining at 2 h, 1 μM in series [2] (human, plasma) stood at 106%; in series [3] (rat, plasma), 104%. In addition, the amount remaining at 4 h, 1 μM was found to be 107% in series [2] (human, plasma, 240 min (4 h)) and 108% in series [3] (rat, plasma, 240 min (4 h)). The “% residual compound, HRMS” value is 73.35% in series [4] (30 min with Cathepsin B), 68.45% in series [4] (60 min with Cathepsin B), 65.40% in series [4] (120 min with Cathepsin B) and 63.70% in series [4] (240 min (4 h) with Cathepsin B). The “% residual compound, HPLC” value in series [4] (30 min with Cathepsin B) is 25.11%; in series [4] (60 min with Cathepsin B), 20.48%; in series [4] (120 min with Cathepsin B), 13.68%.
